The record followed here is the supplement of paper PMC7877785.

The nature of this data set: self-splicing fitness, log relative to wild type (ln ratio); higher = more splicing; Tetrahymena group I intron in knt gene, E. coli kanamycin selection, DiMSum; sequences stand for … in CUCUCU…GGAGGGAAAAGUUAUCAGGCAUGCACCUGGUAGCUAGUCUUUAAACCAAUAGAUUGCAUCGGUUUAAAAGGCAAGACCGUCAAAUUGCGGGAAAGGGGUCAACAGCCGUUCAGUACCAAGUCUCAGGGGAAACUUUGAGAUGGCCUUGCAAAGGGUAUGGUAAUAAGCUGACGGACAUGGUCCUAACCACGCAGCCAAGUCCUAAGUCAACAGAUCUUCUGUUGAUAUGGAUGCAGUUCACAGACUAAAUGUCGGUCGGGGAAGAUGUAUUCUUCUCAUAAGAUAUAGUCGGACCUCUCCUUAAUGGGAGCUAGCGGAUGAAGUGAUGCAACACUGGAGCCGCUGGGAACUAAUUUGUAUGCGAAAGUAUAUUGAUUAGUUUUGGAGUACUCGUGGUCG
Put shortly:
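Fitness was computed with DiMSum as the error-weighted combination of replicate fold changes, kanamycin versus none, each normalised to wild type. The library randomised all eight intron nucleotides of the P1ex region, with the intron placed in the knt kanamycin-resistance gene on pET-22b(+) in E. coli BL21(DE3). Six replicate transformations were grown overnight at 37°C or 30°C on LB agar with or without 25 μg/mL kanamycin, plus 100 μg/mL carbenicillin, 50 μM IPTG and 0.2% rhamnose. Pooled colonies were amplicon-sequenced on an Illumina HiSeq 2500.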

± gives the uncertainty stated by the source.

Regarding UGGCAGCAAUAUUACGGACU, the “self-splicing fitness (ln)” value by setting is: (30 °C) -0.554 ± 0.066; (37 °C) 0.386 ± 0.082.

On to UGGCAGCAAUAUUACGGCAA, for which the “self-splicing fitness (ln)” value is, setting by setting: (30 °C) 0.308 ± 0.22; (37 °C) 0.661 ± 0.19.

Turning to UGGCAGCAAUAUUACGGCGG, the “self-splicing fitness (ln)” value runs as follows: (30 °C) -0.882 ± 0.11; (37 °C) 0.549 ± 0.15.

As for UGGCAGCAAUAUUACGGGGG, the “self-splicing fitness (ln)” value (30 °C) was -3.38 ± 0.23 and the “self-splicing fitness (ln)” value (37 °C) is -2.84 ± 0.29.

For UGGCAGCAAUAUUACGUAAU, the “self-splicing fitness (ln)” value was -2.04 ± 0.082 (30 °C) and -1.05 ± 0.11 (37 °C).

With UGGCAGCAAUAUUACGUAUA, the “self-splicing fitness (ln)” value is, setting by setting: (30 °C) -1.29 ± 0.097; (37 °C) 0.00255 ± 0.11.

Consider UGGCAGCAAUAUUACGUCGU, for which the “self-splicing fitness (ln)” value is, setting by setting: (30 °C) -2.65 ± 0.099; (37 °C) -1.22 ± 0.096.

Take UGGCAGCAAUAUUACGUUAG: the “self-splicing fitness (ln)” value reads like this: (30 °C) -0.283 ± 0.087; (37 °C) 0.37 ± 0.12.

Turning to UGGGAGCAAUAUUACGAAUU, the “self-splicing fitness (ln)” value (37 °C) is -2.63 ± 0.28.

Regarding UGGGAGCAAUAUUACGACUG, the “self-splicing fitness (ln)” value reads like this: (30 °C) -0.532 ± 0.39; (37 °C) -1.31 ± 0.47.

With UGGGAGCAAUAUUACGACUU, the “self-splicing fitness (ln)” value by setting is: (30 °C) -2.15 ± 0.091; (37 °C) -0.921 ± 0.11.

For UGGGAGCAAUAUUACGCGGG, the “self-splicing fitness (ln)” value (30 °C) is -3.85 ± 0.22 and the “self-splicing fitness (ln)” value (37 °C) is -2.89 ± 0.19.

Take UGGGAGCAAUAUUACGCGUC: the “self-splicing fitness (ln)” value (30 °C) was -0.5 ± 0.36.

For the sequence UGGGAGCAAUAUUACGGGGG, the “self-splicing fitness (ln)” value (30 °C) is -2.97 ± 0.25 and the “self-splicing fitness (ln)” value (37 °C) was -2.17 ± 0.35.

With UGGGAGCAAUAUUACGUACA, the “self-splicing fitness (ln)” value is -1.26 ± 0.22 (30 °C) and -0.889 ± 0.42 (37 °C).

Take UGGGAGCAAUAUUACGUCAC: the “self-splicing fitness (ln)” value (30 °C) was -1.96 ± 0.36.

Turning to UGGGAGCAAUAUUACGUCAG, the “self-splicing fitness (ln)” value reads like this: (30 °C) -2.87 ± 0.23; (37 °C) -1.5 ± 0.3.

Turning to UGGGAGCAAUAUUACGUCCA, the “self-splicing fitness (ln)” value was -2.03 ± 0.12 (30 °C) and -1.13 ± 0.11 (37 °C).

With UGGGAGCAAUAUUACGUGCA, the “self-splicing fitness (ln)” value by setting is: (30 °C) -1.07 ± 0.093; (37 °C) -0.293 ± 0.11.

UGGGAGCAAUAUUACGUGCC: the “self-splicing fitness (ln)” value runs as follows: (30 °C) -2.29 ± 0.34; (37 °C) -2.09 ± 0.35.

In the case of UGGGAGCAAUAUUACGUGGA, the “self-splicing fitness (ln)” value is -2.94 ± 0.44 (30 °C) and -2.11 ± 0.2 (37 °C).

Consider UGGUAGCAAUAUUACGAACG, for which the “self-splicing fitness (ln)” value is, setting by setting: (30 °C) -0.892 ± 0.19; (37 °C) 0.374 ± 0.22.

Consider UGGUAGCAAUAUUACGAAUU, for which the “self-splicing fitness (ln)” value is, setting by setting: (30 °C) -1.86 ± 0.36; (37 °C) -2.22 ± 0.32.

UGGUAGCAAUAUUACGACGG: the “self-splicing fitness (ln)” value by setting is: (30 °C) -1.49 ± 0.11; (37 °C) -0.695 ± 0.13.

For the sequence UGGUAGCAAUAUUACGAGAU, the “self-splicing fitness (ln)” value (37 °C) was -1.76 ± 0.43.

On to UGGUAGCAAUAUUACGAGGA, for which the “self-splicing fitness (ln)” value runs as follows: (30 °C) -2.9 ± 0.26; (37 °C) -2.09 ± 0.32.

In the case of UGGUAGCAAUAUUACGAGGC, the “self-splicing fitness (ln)” value was -2.16 ± 0.28 (30 °C) and -2.19 ± 0.28 (37 °C).

For the sequence UGGUAGCAAUAUUACGAUGC, the “self-splicing fitness (ln)” value is -3.09 ± 0.5 (30 °C) and -1.82 ± 0.43 (37 °C).

Take UGGUAGCAAUAUUACGCGAA: the “self-splicing fitness (ln)” value by setting is: (30 °C) -0.913 ± 0.11; (37 °C) -0.833 ± 0.11.

Regarding UGGUAGCAAUAUUACGCUCC, the “self-splicing fitness (ln)” value is -2.54 ± 0.24 (30 °C) and -2.44 ± 0.21 (37 °C).

For UGGUAGCAAUAUUACGGACG, the “self-splicing fitness (ln)” value (30 °C) is 1.33 ± 0.17 and the “self-splicing fitness (ln)” value (37 °C) was found to be 0.34 ± 0.19.

As for UGGUAGCAAUAUUACGGACU, the “self-splicing fitness (ln)” value reads like this: (30 °C) -0.67 ± 0.17; (37 °C) 0.844 ± 0.2.

UGGUAGCAAUAUUACGGAGG: the “self-splicing fitness (ln)” value (30 °C) was -3.85 ± 0.27 and the “self-splicing fitness (ln)” value (37 °C) was -1.56 ± 0.16.

As for UGGUAGCAAUAUUACGGAUU, the “self-splicing fitness (ln)” value was -3.77 ± 0.4 (30 °C) and -0.91 ± 0.31 (37 °C).

As for UGGUAGCAAUAUUACGGCAU, the “self-splicing fitness (ln)” value is -1.5 ± 0.2 (30 °C) and -0.405 ± 0.21 (37 °C).

Regarding UGGUAGCAAUAUUACGGCGC, the “self-splicing fitness (ln)” value was -1.57 ± 0.37 (30 °C) and -0.642 ± 0.3 (37 °C).

As for UGGUAGCAAUAUUACGGGGG, the “self-splicing fitness (ln)” value by setting is: (30 °C) -3.73 ± 0.32; (37 °C) -2.45 ± 0.33.

Take UGGUAGCAAUAUUACGGUCU: the “self-splicing fitness (ln)” value (30 °C) is -0.135 ± 0.21 and the “self-splicing fitness (ln)” value (37 °C) is -0.457 ± 0.33.

Take UGGUAGCAAUAUUACGUAAU: the “self-splicing fitness (ln)” value (30 °C) was -1.61 ± 0.19 and the “self-splicing fitness (ln)” value (37 °C) is -0.903 ± 0.16.

In the case of UGGUAGCAAUAUUACGUACA, the “self-splicing fitness (ln)” value (30 °C) is -0.28 ± 0.087 and the “self-splicing fitness (ln)” value (37 °C) stood at 0.35 ± 0.12.

For the sequence UGGUAGCAAUAUUACGUCGG, the “self-splicing fitness (ln)” value reads like this: (30 °C) -1.21 ± 0.12; (37 °C) -0.18 ± 0.15.

Turning to UGGUAGCAAUAUUACGUGGA, the “self-splicing fitness (ln)” value runs as follows: (30 °C) -2.71 ± 0.26; (37 °C) -1.98 ± 0.16.

For the sequence UGGUAGCAAUAUUACGUUUG, the “self-splicing fitness (ln)” value was -1.26 ± 0.07 (30 °C) and -0.669 ± 0.098 (37 °C).

In the case of UGUAAGCAAUAUUACGAAUA, the “self-splicing fitness (ln)” value is -0.825 ± 0.21 (30 °C) and -0.536 ± 0.23 (37 °C).

With UGUAAGCAAUAUUACGAAUG, the “self-splicing fitness (ln)” value reads like this: (30 °C) -0.511 ± 0.077; (37 °C) -0.125 ± 0.099.

As to UGUAAGCAAUAUUACGACUU, the “self-splicing fitness (ln)” value runs as follows: (30 °C) -1.06 ± 0.09; (37 °C) 0.0267 ± 0.14.

Regarding UGUAAGCAAUAUUACGAGAC, the “self-splicing fitness (ln)” value reads like this: (30 °C) -3.68 ± 0.43; (37 °C) -0.552 ± 0.26.

Take UGUAAGCAAUAUUACGAUCG: the “self-splicing fitness (ln)” value runs as follows: (30 °C) 0.587 ± 0.097; (37 °C) -0.129 ± 0.11.

With UGUAAGCAAUAUUACGAUUU, the “self-splicing fitness (ln)” value was -1.82 ± 0.17 (30 °C) and -1.24 ± 0.14 (37 °C).

Consider UGUAAGCAAUAUUACGCAAC, for which the “self-splicing fitness (ln)” value reads like this: (30 °C) -3.15 ± 0.31; (37 °C) -1.79 ± 0.29.

UGUAAGCAAUAUUACGCACA: the “self-splicing fitness (ln)” value (30 °C) was -1.44 ± 0.13 and the “self-splicing fitness (ln)” value (37 °C) was -0.574 ± 0.17.

Regarding UGUAAGCAAUAUUACGCGAG, the “self-splicing fitness (ln)” value was -3.32 ± 0.27 (30 °C) and -1.56 ± 0.17 (37 °C).

As to UGUAAGCAAUAUUACGCGUU, the “self-splicing fitness (ln)” value was -2.69 ± 0.26 (30 °C) and -0.234 ± 0.2 (37 °C).

Take UGUAAGCAAUAUUACGGACU: the “self-splicing fitness (ln)” value was -0.351 ± 0.094 (30 °C) and 0.0199 ± 0.11 (37 °C).

As for UGUAAGCAAUAUUACGGCAU, the “self-splicing fitness (ln)” value is -1.48 ± 0.12 (30 °C) and -0.402 ± 0.11 (37 °C).

Consider UGUAAGCAAUAUUACGGCCG, for which the “self-splicing fitness (ln)” value is -0.494 ± 0.17 (30 °C) and -0.516 ± 0.25 (37 °C).

Take UGUAAGCAAUAUUACGGCCU: the “self-splicing fitness (ln)” value (30 °C) is -1.08 ± 0.1 and the “self-splicing fitness (ln)” value (37 °C) is -0.452 ± 0.12.

Turning to UGUAAGCAAUAUUACGGCGU, the “self-splicing fitness (ln)” value was -0.483 ± 0.1 (30 °C) and -0.397 ± 0.12 (37 °C).

Turning to UGUAAGCAAUAUUACGGGAC, the “self-splicing fitness (ln)” value is -2.45 ± 0.25 (30 °C) and -2.62 ± 0.44 (37 °C).

For UGUAAGCAAUAUUACGGUAA, the “self-splicing fitness (ln)” value reads like this: (30 °C) -1.8 ± 0.2; (37 °C) -0.586 ± 0.12.

Turning to UGUAAGCAAUAUUACGUAUU, the “self-splicing fitness (ln)” value is, setting by setting: (30 °C) -2.86 ± 0.11; (37 °C) -0.873 ± 0.083.
